In article PMC8248823, “Phosphorus and sulfur SAD phasing of the nucleic acid-bound DNA-binding domain of interferon regulatory factor 4”:

Target: T1, IRF4 DBD (human, UniProt Q15306 20-139)
T1 sequence: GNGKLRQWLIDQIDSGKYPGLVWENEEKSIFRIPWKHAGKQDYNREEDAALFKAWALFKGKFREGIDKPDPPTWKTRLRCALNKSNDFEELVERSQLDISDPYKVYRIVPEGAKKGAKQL
Assay: X-ray crystallography (native P/S SAD); three IRF4 DBD molecules on one ISRE; DNA:protein 1.2:1 mixed before crystallization; Crystallization complex: protein in 20 mM Tris-HCl pH 8, 500 mM NaCl, 0.5 mM TCEP (gel-filtration buffer); DNA:protein 1.2:1, 1 h at 277 K; crystallization conditions not in material
Details: protein: recombinant; tags: N-terminal 6xHis; chain copies: 3; 5' overhang 1 nt on each strand (A / T), 20 bp duplex

B1: ISRE 21-mer (dsDNA)
DNA 1: AATAAAAGAAACCGAAAGTAA
DNA 2: TTTACTTTCGGTTTCTTTTAT
B1: binds.
